Experimental findings from patent publication US20180328929A1 (BIOMERIEUX, published 2018) are described below.

Numbering of substitutions follows the chain as printed.

Data set [1] concerns the molecule itself. The experiment in a line: SDS-PAGE, non-heated (self-association).
Data set [2] deals with the molecule itself. The experiment in a line: SDS-PAGE (self-association).

B1: ORF2-MUT (ORF2 amino acids 394-660 with cysteines 627, 630 and 638 changed to serine, N-terminal 8-his tag) (other)
chain: HHHHHHHHQLFYSRPVVSANGEPTVKLYTSVENAQQDKGIAIPHDIDLGESRVVIQDYDNQHEQDRPTPSPAPSRPFSVLRANDVLWLSLTAAEYDQSTYGSSTGPVYVSDSVTLVNVATGAQAVARSLDWTKVTLDGRPLSTTQQYSKTFFVLPLRGKLSFWEAGTTKAGYPYNYNTTASDQLLVENAAGHRVAISTYTTSLGAGPVSISAVAVLAPHSALALLEDTMDYPARAHTFDDFSPESRPLGLQGSAFQSTVAELQRLKMKVGKTREL
notes: Made in E. coli; also called p-ORF2-MUT; construction according to the invention
Regarding B1, the binding result in data set [1] is listed as “binds”.

B2: ORF2-REF (ORF2 amino acids 394-660 of hepatitis E virus isolate Human/China/HeBei/1987, N-terminal 8-his tag) (other)
chain: B1 chain with S242C, S245C, S253C
notes: Made in E. coli, dissolved from inclusion bodies in urea, Ni-NTA purified, dialyzed; Heterogeneous: covalent dimers (major form), non-covalent dimers, high-molecular-weight forms and aggregates; also called p-ORF2.1 polypeptide
B2: the binding result in data set [2] is given as “binds”.
